This is an account of results in patent US11702475B2, “Cysteine engineered fibronectin type III domain binding molecules” (Janssen Biotech, Inc., priority 2013, dated 2023).

A short description of data set [1]: Thermal stability of cysteine-NEM conjugates by DSC. It is filed as physicochemical. Particulars: for First Scan Tm: DSC 25-100 °C, 1 °C per minute; for Second Scan Tm: second identical scan. As to the method:
The thermal stability of cysteine-NEM conjugates was assessed by differential scanning calorimetry (DSC). The only the conjugates tested were those determined to express at high levels, conjugate efficiently, and retain EGFR binding. Additionally, cysteine variants within the BC and FG loops were excluded. Stability data was generated by heating a 400 μL aliquot of the variant from 25° C. to 100° C. at a scan rate of 1° C. per minute in a VP-DSC instrument (MicroCal). A second identical scan was completed on the sample in order to assess the reversibility of thermal folding/unfolding. Data was fitted to a 2-state unfolding model in order to calculate the melting temperature (Table 10).
A general note: In DSC, transitions show as peaks or steps in heat flow.

The nature of data set [2]: Analytical size exclusion chromatography (percent monomer). Particulars: NEM-conjugated cysteine variants; SEC, Abs280 monomer region 5.5-6 minutes vs oligomer region 4-5.3 minutes. It is filed as physicochemical. The procedure, abridged:
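Purified FN3 domains were run on a Superdex 75 5/150 column in PBS pH 7.4 at 0.3 mL/min with A280 detection. Percent monomer came from integrating the monomer peak (5.5–6 min) against oligomer peaks (4–5.3 min).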
(In general: Size exclusion chromatography separates by hydrodynamic size, large species first.)

The subject of data set [3] is EGFR-overexpressing human tumor cell line H1573. As to the kind of experiment: Cytotoxicity assay in H1573 cells. It counts as cell-based. Particulars: cysteine variants conjugated to VC-MMAF, Cell TiterGlo at 70 hours, read-out: IC50. The procedure: Cell killing was assessed by measuring viability of the EGFR-overexpressing human tumor cell line H1573 following exposure to the cysteine variant-cytotoxin conjugates. Cells were plated in black-well, clear bottomed, tissue culture-treated plates (Falcon 353219) at 7000/well in 100 μL/well of phenol red free RPMI media (Gibco 11835-030) with 5% fetal bovine serum (Gibco). Cells were allowed to attach overnight at 37° C. in a humidified 5% CO2 atmosphere. Medium was aspirated from 96-well plate and cells were treated with 50 uL of fresh media and 50 uL of 2× inhibitor made up in fresh media. Cell viability was determined by an endpoint assay with Cell TiterGlo (Promega) at 70 hours. IC50 values were determined by fitting data to the equation for a sigmoidal dose response with variable slope using GraphPad Prism 5 (GraphPad Software). Table 11 reports IC50 values obtained from analysis of the CellTiter Glo data.
Conjugates consisting of ECB147 cysteine variants, 83v2-cys, or Tencon-cys linked to a cytotoxic tubulin inhibitor from the auristatin family (FIG. 2) were tested for target-dependent cytotoxicity in cancer cells. The inhibitor was linked to the cysteine-containing protein via a non-cleavable PEG4 linker or an enzyme-cleavable valine-citrulline or valine-lysine linker. Cell killing was assessed by measuring viability of the EGFR-overexpressing human tumor cell lines H1573 and A431 as well as the EGFR-negative tumor cell line MDA-MB-435 following exposure to the protein-cytotoxin conjugates using the procedure described in Example 4.
For orientation: Cellular ATP, detected with luciferase, serves as a proxy for viable cell number.

The nature of data set [4]: Differential scanning calorimetry in PBS of FN3 domains. It counts as physicochemical. To be noted: DSC in PBS; EGFR-binding FN3 domains and stabilised mutants. From the text: A subset of the EGFR binding FN3 domains was engineered to increase the conformational stability of each molecule. The mutations L17A, N46V, and E86I (described in US Pat. Publ. No. 2011/0274623) were incorporated into clones P54AR4-83, P54CR4-31, and P54AR4-37 by DNA synthesis. […] Differential scanning calorimetry in PBS was used to assess the stability of each mutant in order to compare it to that of the corresponding parent molecule.
Thermal Stability of c-Met-Binding FN3 Domains Differential scanning calorimetry in PBS was used to assess the stability of each FN3 domain.

Changes are numbered by the printed parent chain. In names and notes the source's numbering stands.

B1: T59C: cysteine variant of P54AR4-83v2 (SEQ ID NOS: 206 and 244); NEM and VC-MMAF conjugates (conjugate)
chain: MLPAPKNLVVSEVTEDSARLSWDDPWAFYESFLIQYQESEKVGEAIVLTVPGSERSYDLCGLKPGTEYTVSIYGVHNVYKDTNMRGLPLSAIFTT
modifications: NEM or vcMMAF conjugate; EGFR binding FN3 domain
notes: NEM and VC-MMAF conjugates
Take B1: in data set [1], the “First Scan Tm” value was 67 °C and the “Second Scan Tm” value was determined as 67 °C. The Percent monomer in data set [2] is listed as 100%. Further, in data set [3], the IC50 amounted to 0.44 nM.

B2: A90C: cysteine variant of P54AR4-83v2 (SEQ ID NOS: 214 and 252); NEM and VC-MMAF conjugates (conjugate)
chain: B1 chain with C60T, A91C
modifications: NEM or vcMMAF conjugate; EGFR binding FN3 domain
notes: NEM and VC-MMAF conjugates
Take B2: in data set [1], the “First Scan Tm” value was determined as 67 °C and the “Second Scan Tm” value stood at 67 °C. For the same molecule, the Percent monomer in data set [2] turned out to be 100%. In data set [3], the IC50 was 1 nM.

B3: S70C: cysteine variant of P54AR4-83v2 (SEQ ID NOS: 211 and 249); NEM and VC-MMAF conjugates (conjugate)
chain: B1 chain with C60T, S71C
modifications: NEM or vcMMAF conjugate; EGFR binding FN3 domain
notes: NEM and VC-MMAF conjugates
Turning to B3, in data set [1], the “First Scan Tm” value is 73 °C and the “Second Scan Tm” value was found to be 72 °C. This molecule showed a Percent monomer in data set [2] of 100%. The IC50 in data set [3] stood at 1.14 nM.

B4: L88C: cysteine variant of P54AR4-83v2 (SEQ ID NOS: 212 and 250); NEM and VC-MMAF conjugates (conjugate)
chain: B1 chain with C60T, L89C
modifications: NEM or vcMMAF conjugate; EGFR binding FN3 domain
notes: NEM and VC-MMAF conjugates
As for B4, in data set [1], the “First Scan Tm” value turned out to be 70 °C and the “Second Scan Tm” value was 70 °C. Moreover, in data set [2], the Percent monomer was found to be 98%. Moreover, the IC50 in data set [3] turned out to be 0.81 nM.

B5: I91C: cysteine variant of P54AR4-83v2 (SEQ ID NOS: 215 and 253); NEM and VC-MMAF conjugates (conjugate)
chain: B1 chain with C60T, I92C
modifications: NEM or vcMMAF conjugate; EGFR binding FN3 domain
notes: NEM and VC-MMAF conjugates
Take B5: in data set [1], the “First Scan Tm” value stood at 70 °C and the “Second Scan Tm” value was determined as 69 °C. In data set [2], this molecule showed a Percent monomer of 100%. Also, the IC50 in data set [3] amounted to 0.54 nM.

B6: G60C: cysteine variant of P54AR4-83v2 (SEQ ID NOS: 207 and 245); NEM and VC-MMAF conjugates (conjugate)
chain: B1 chain with C60T, G61C
modifications: NEM or vcMMAF conjugate; EGFR binding FN3 domain
notes: NEM and VC-MMAF conjugates
B6: in data set [1], the “First Scan Tm” value came to 66 °C and the “Second Scan Tm” value worked out at 66 °C. In data set [2], this molecule yielded a Percent monomer of 100%. Besides, the IC50 in data set [3] was found to be 1 nM.

B7: S89C: cysteine variant of P54AR4-83v2 (SEQ ID NOS: 213 and 251); NEM and VC-MMAF conjugates (conjugate)
chain: B1 chain with C60T, S90C
modifications: NEM or vcMMAF conjugate; EGFR binding FN3 domain
notes: NEM and VC-MMAF conjugates
For B7, in data set [1], the “First Scan Tm” value was found to be 72 °C and the “Second Scan Tm” value amounted to 71 °C. This molecule returned a Percent monomer in data set [2] of 96%. Also, in data set [3], the IC50 was 0.94 nM.

B8: K62C: cysteine variant of P54AR4-83v2 (SEQ ID 208 and 246); NEM and VC-MMAF conjugates (conjugate)
chain: B1 chain with C60T, K63C
modifications: NEM or vcMMAF conjugate; EGFR binding FN3 domain
notes: NEM and VC-MMAF conjugates
Regarding B8, in data set [1], the “First Scan Tm” value turned out to be 65 °C and the “Second Scan Tm” value came to 65 °C. The same molecule gave a Percent monomer in data set [2] of 95%. For the same molecule, the IC50 in data set [3] is 1.25 nM.

B9: G64C: cysteine variant of P54AR4-83v2 (SEQ ID NOS: 209 and 247); NEM and VC-MMAF conjugates (conjugate)
chain: B1 chain with C60T, G65C
modifications: NEM or vcMMAF conjugate; EGFR binding FN3 domain
notes: NEM and VC-MMAF conjugates
B9: in data set [1], the “First Scan Tm” value is 70 °C and the “Second Scan Tm” value was found to be 70 °C. Moreover, the Percent monomer in data set [2] is on record as 100%. Besides, the IC50 in data set [3] worked out at 0.36 nM.

B10: P54AR4-83: EGFR-binding FN3 domain, SEQ ID NO: 25 (protein)
chain: LPAPKNLVVSEVTEDSLRLSWDDPWAFYESFLIQYQESEKVGEAINLTVPGSERSYDLTGLKPGTEYTVSIYGVHNVYKDTNMRGLPLSAEFTT
modifications: EGFR binding FN3 domain
B10: the Tm in data set [4] worked out at 50.6 °C.

B11: V74C: cysteine variant of P54AR4-83v2; NEM and VC-MMAF conjugates (conjugate)
chain: B10 chain with L17A, N46V, V74C, E91I
modifications: left off: small tags and cut ends
notes: cysteine variant of P54AR4-83v2; NEM and VC-MMAF conjugates
In the case of B11, in data set [1], the “First Scan Tm” value came out at 68 °C and the “Second Scan Tm” value was found to be 67 °C. This molecule displayed a Percent monomer in data set [2] of 100%. The IC50 in data set [3] stood at 3.13 nM.

B12: P54AR4-37: EGFR-binding FN3 domain, printed SEQ ID NO: 22 (that of P54AR4-73) (protein)
chain: B10 chain with D22T, D23W, W25Y, F27D, Y28L, E29D
modifications: left off: small tags and cut ends
Consider B12, for which the Tm in data set [4] was 45.9 °C.

B13: Y72C: cysteine variant of P54AR4-83v2; NEM and VC-MMAF conjugates (conjugate)
chain: B10 chain with L17A, N46V, Y72C, E91I
modifications: left off: small tags and cut ends
notes: as for B11
Take B13: in data set [1], the “First Scan Tm” value was 70 °C and the “Second Scan Tm” value was 69 °C. Besides, in data set [2], the Percent monomer worked out at 100%. Moreover, the IC50 in data set [3] is 1.85 nM.

B14: P54AR4-37v2: P54AR4-37 with mutations L17A, N46V, E86I; SEQ ID NO: 29 (protein)
chain: B10 chain with D22T, D23W, W25Y, F27D, Y28L, E29D
modifications: EGFR binding FN3 domain
For B14, the melting temperature (Tm) in data set [4] came out at 64.2 °C.

B15: P54CR4-31: EGFR-binding FN3 domain, SEQ ID NO: 26 (protein)
chain: LPAPKNLVVSEVTEDSLRLSWTAPDAAFDSFLIQYQESEKVGEAINLTVPGSERSYDLTGLKPGTEYTVSIYGVLGSYVFEHDVMLPLSAEFTT
modifications: EGFR binding FN3 domain
Regarding B15, the Tm in data set [4] came out at 60.9 °C.

B16: P54CR4-31v2: P54CR4-31 with mutations L17A, N46V, E86I; SEQ ID NO: 28 (protein)
chain: B15 chain with L17A, N46V, E91I
modifications: EGFR binding FN3 domain
As for B16, in data set [4], the Tm came to 78.9 °C.

Broadly, the IC50 is the concentration needed to halve the response being measured. In general, Tm refers to the temperature at the midpoint of the melting transition.
